Test results published in article PMC8231982.

Biological target: influenza hemagglutinin full length protein, A/New-York/55/04 (H3N2) (influenza A virus A/New-York/55/04 (H3N2))
Assay: SPR

Chain of wild-type cyanovirin-N (WT CV–N) (P81180 whole entry): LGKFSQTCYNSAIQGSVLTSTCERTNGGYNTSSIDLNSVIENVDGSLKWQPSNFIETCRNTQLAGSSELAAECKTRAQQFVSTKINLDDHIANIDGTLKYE

Q: “wild-type cyanovirin-N (WT CV–N) (from UniProt P81180 1-101) (natural protein)” was tested. Which Kd did it give?
A: 5.7 nM
